# US12383572B2, “Administration of an anti-activin-a compound to a subject” (AMGEN INC., priority 2013, dated 2025)
# B1: recombinant activin-A: Recombinant activin-A was produced using mammalian expression system (Amgen Inc) (protein, UniProt P08476 311-426, looked up)
# Inhibin beta A chain: GLECDGKVNICCKKQFFVSFKDIGWNDWIIAPSGYHANYCEGECPSHIAGTSGSSLSFHSTVINHYRMRGHSPFANLKSCCVPTKLRPMSMLYYDDGQNIIKKDIQNMIVEECGCS
# Assays:
# [1] = system: TOV-21G, BAEC, MRC-5, CCD-Lu, U937 and THP-1 cultures; assay: Real-time RT-PCR of VEGF, Ang-1 and βA in cell cultures treated with recombinant activin-A; assay type: cell-based; conditions: BAEC
# Excerpt: ID NO: 291), [NT] ID NO: 292), and TaqMan probe [NT] ID NO: 293).
# [2] = system: TOV-21G, MRC-5, CCD-Lu and THP-1 cell cultures; assay: VEGF and Ang-1 ELISA of cell culture medium after recombinant activin-A; assay type: cell-based, human; conditions: TOV21G, MRC-5, CCD-Lu and TPH-1 cells treated with activin-A
# Procedure: The serum VEGF levels in inh-KO mice were measured by using immunoassay kit (R & D Systems), and the levels of human VEGF and Ang-1 in cell line culture medium were quantified using ELISA kits purchased from Invitrogen (VEGF) and R & D Systems (Ang-1), by following the manufacturers' recommended protocols.
molecule,measurement,setting,value
B1,Ang-1 mRNA (real-time PCR),[1]; MRC-5 and CCD-Lu cultures treated with recombinant activin-A,"also of Ang-1 mRNA in BAEC, MRC-5 and CCD-Lu cultures"
same,endogenous activin-A (βA) mRNA expression,"[1]; TOV21G, MRC-5, CCD-Lu, U937 and THP-1 cultures, recombinant activin-A added",markedly upregulated βA expression in all these cells
same,VEGF transcripts (real-time PCR),"[1]; TOV-21G, MRC-5 or CCD-Lu, U937 cultures treated with recombinant activin-A",marked increases in the levels of VEGF transcripts in all these cultures
same,release of VEGF into the culture medium (ELISA),[2],increased the release of VEGF
